Measurements: patent US20210230570

What was measured:
[1] = tested on: plasma purified human AT-III (antithrombin III), in complex with low molecular weight heparin; assay: same assay; ratio of K0.5 to that of Catalyst Biosciences WT FIXa
[2] = tested on: Antithrombin III (AT-III), plasma purified human, in complex with full-length unfractionated heparin (UFH)
[3] = target: Factor X (FX), active site titrated and DFP/EGR-cmk treated zymogen (UniProt P00742)
Factor X (FX) = Factor X (FX) (UniProt P00742)
Factor X = Factor X (UniProt P00742)
Factor X, sequence (P00742 41-488): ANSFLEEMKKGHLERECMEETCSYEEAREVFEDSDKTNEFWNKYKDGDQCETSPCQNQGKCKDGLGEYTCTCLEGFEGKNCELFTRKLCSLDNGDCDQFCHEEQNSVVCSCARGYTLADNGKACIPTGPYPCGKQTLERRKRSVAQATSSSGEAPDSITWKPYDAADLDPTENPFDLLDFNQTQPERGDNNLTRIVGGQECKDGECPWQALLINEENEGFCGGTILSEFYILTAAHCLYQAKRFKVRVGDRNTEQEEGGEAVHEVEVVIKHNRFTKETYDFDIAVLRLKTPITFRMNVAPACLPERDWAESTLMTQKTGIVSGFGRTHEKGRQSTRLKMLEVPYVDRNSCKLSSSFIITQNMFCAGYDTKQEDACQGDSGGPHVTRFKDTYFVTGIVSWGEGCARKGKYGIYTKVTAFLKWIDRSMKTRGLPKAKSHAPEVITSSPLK

Factor X (FX), active site titrated and DFP/EGR-cmk treated zymogen, sequence (P00742 41-488): as above
Factor X (FX), sequence (P00742 41-488): as above

Substance: BeneFIX Coagulation Factor IX (Recombinant), activated (FIXa)
- K0.5-mut/K0.5-wt [1]: 0.9

Substance: FIXa A103N/N105S
- K0.5 [2]: 20 nM
- K0.5-mut/K0.5-wt [2]: 1

Substance: FIXa A103N/N105S (A[103]N/N[105]S by chymotrypsin numbering)
- kcat [3]: 3.1 s⁻¹

Substance: FIXa A103N/N105S/Y155F
- K0.5 [2]: 11 nM
- K0.5-mut/K0.5-wt [2]: 0.6

Substance: FIXa A103N/N105S/Y155F (A[103]N/N[105]S/Y[155]F by chymotrypsin numbering)
- kcat [3]: 3.2 s⁻¹

Substance: FIXa D64A
- K0.5 [2]: 16 nM
- K0.5-mut/K0.5-wt [2]: 0.8

Substance: FIXa D64A (D[64]A by chymotrypsin numbering)
- kcat [3]: 0.3 s⁻¹

Substance: FIXa D64N (D[64]N by chymotrypsin numbering)
- kcat [3]: 1.2 s⁻¹

Substance: FIXa D85N
- K0.5 [2]: 17 nM
- K0.5-mut/K0.5-wt [2]: 0.9

Substance: FIXa D85N (D[85]N by chymotrypsin numbering)
- kcat [3]: 4.2 s⁻¹

Substance: FIXa D104N/K106S
- K0.5 [2]: 20 nM
- K0.5-mut/K0.5-wt [2]: 1

Substance: FIXa D104N/K106S (D[104]N/K[106]S by chymotrypsin numbering)
- kcat [3]: 3.1 s⁻¹

Substance: FIXa D104N/K106S/Y155F
- K0.5 [2]: 6 nM
- K0.5-mut/K0.5-wt [2]: 0.3

Substance: FIXa D104N/K106S/Y155F (D[104]N/K[106]S/Y[155]F by chymotrypsin numbering)
- kcat [3]: 2.9 s⁻¹

Substance: FIXa K5A
- K0.5 [2]: 22 nM
- K0.5-mut/K0.5-wt [2]: 1.2
- KM (Factor X (FX)): 0.0654 µM

Substance: FIXa K5A (K[5]A by chymotrypsin numbering)
- kcat [3]: 3.1 s⁻¹

Substance: FIXa N157D
- K0.5 [2]: 17 nM

Substance: FIXa N157Q
- K0.5 [2]: 16 nM

Substance: FIXa N167D
- K0.5 [2]: 12 nM

Substance: FIXa N167Q
- K0.5 [2]: 12 nM

Substance: FIXa S53A
- K0.5 [2]: 27 nM
- K0.5-mut/K0.5-wt [2]: 1.4

Substance: FIXa S53A (S[53]A by chymotrypsin numbering)
- kcat [3]: 3.7 s⁻¹

Substance: FIXa S61A
- K0.5 [2]: 19 nM
- K0.5-mut/K0.5-wt [2]: 1

Substance: FIXa S158D
- K0.5 [2]: 15 nM

Substance: FIXa S158E
- K0.5 [2]: 14 nM

Substance: FIXa T159A
- K0.5 [2]: 33 nM

Substance: FIXa T169A
- K0.5 [2]: 17 nM

Substance: FIXa T172A
- K0.5 [2]: 16 nM

Substance: FIXa Y155F
- K0.5 [2]: 13 nM

Substance: FIXa Y155H
- K0.5 [2]: 25 nM

Substance: FIXa Y155Q
- K0.5 [2]: 23 nM

Substance: FIXa-A103N/N105S
- K0.5-mut/K0.5-wt [1]: 1.1

Substance: FIXa-A103N/N105S/Y155F
- % of WT (kcat/KM) (Factor X (FX)): 85%
- kcat/KM (M^-1s^-1) (Factor X (FX)): 3.9e+07 M⁻¹ s⁻¹
- kcat (Factor X): 3.2 s⁻¹

Substance: FIXa-D64A
- kcat/KM (M^-1s^-1) (Factor X (FX)): 2.5e+06 M⁻¹ s⁻¹
- kcat (Factor X): 0.3 s⁻¹

Substance: FIXa-D64N
- kcat/KM (M^-1s^-1) (Factor X (FX)): 1e+07 M⁻¹ s⁻¹
- kcat (Factor X): 1.2 s⁻¹

Substance: FIXa-D85N
- % of WT (kcat/KM) (Factor X (FX)): 153%
- kcat/KM (Factor X (FX)): 7e+07 M⁻¹ s⁻¹
- kcat/KM (M^-1s^-1) (Factor X (FX)): 7.3e+07 M⁻¹ s⁻¹
- kcat (Factor X): 4.1 s⁻¹
- K0.5-mut/K0.5-wt [1]: 1.1

Substance: FIXa-D104N/K106S
- % of WT (kcat/KM) (Factor X (FX)): 83%
- kcat/KM (M^-1s^-1) (Factor X (FX)): 3.8e+07 M⁻¹ s⁻¹
- K0.5-mut/K0.5-wt [1]: 0.9

Substance: FIXa-D104N/K106S/Y155F
- % of WT (kcat/KM) (Factor X (FX)): 78%
- kcat/KM (M^-1s^-1) (Factor X (FX)): 3.6e+07 M⁻¹ s⁻¹
- kcat (Factor X): 2.9 s⁻¹

Substance: FIXa-K5A
- kcat (Factor X): 3.5 s⁻¹

Substance: FIXa-K106N/V108S
- % of WT (kcat/KM) (Factor X (FX)): 60%
- kcat/KM (M^-1s^-1) (Factor X (FX)): 2.8e+07 M⁻¹ s⁻¹
- kcat (Factor X): 2.5 s⁻¹
- K0.5-mut/K0.5-wt [1]: 1.6

Substance: FIXa-S53A
- % of WT (kcat/KM) (Factor X (FX)): 76%
- kcat/KM (M^-1s^-1) (Factor X (FX)): 3.5e+07 M⁻¹ s⁻¹
- kcat (Factor X): 3.7 s⁻¹

Substance: FIXa-S61A
- % of WT (kcat/KM) (Factor X (FX)): 105%
- kcat/KM (M^-1s^-1) (Factor X (FX)): 4.8e+07 M⁻¹ s⁻¹

Substance: Plasma Purified FIXa
- K0.5 [2]: 30 nM
